Reference: paper PMC9482650, “Quantitative fragmentomics allow affinity mapping of interactomes” (Nature Communications, 2022)

T1: FRMPD1, Q5SYB0
T1 sequence (Q5SYB0 52-145, limits assumed, looked up): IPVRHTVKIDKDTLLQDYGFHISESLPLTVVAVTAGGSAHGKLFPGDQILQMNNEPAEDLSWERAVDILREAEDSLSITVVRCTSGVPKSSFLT

T2: DVL3, Q92997
T2 sequence (Q92997 244-331, limits assumed, looked up): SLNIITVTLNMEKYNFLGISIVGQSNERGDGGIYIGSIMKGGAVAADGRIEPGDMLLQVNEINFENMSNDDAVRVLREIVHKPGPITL

T3: SHANK1, Q9Y566
T3 sequence (Q9Y566 658-767, limits assumed, looked up): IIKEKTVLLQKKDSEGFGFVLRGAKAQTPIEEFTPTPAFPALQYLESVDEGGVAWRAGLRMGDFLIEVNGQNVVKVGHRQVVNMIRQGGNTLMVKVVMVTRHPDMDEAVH

T4: APBA2_1, Q99767
T4 sequence (Q99767 563-664, limits assumed, looked up): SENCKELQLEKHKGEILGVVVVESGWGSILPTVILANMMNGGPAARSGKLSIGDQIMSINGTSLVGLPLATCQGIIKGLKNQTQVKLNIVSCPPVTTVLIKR

T5: APBA3_1, O96018
T5 sequence (O96018 389-490, limits assumed, looked up): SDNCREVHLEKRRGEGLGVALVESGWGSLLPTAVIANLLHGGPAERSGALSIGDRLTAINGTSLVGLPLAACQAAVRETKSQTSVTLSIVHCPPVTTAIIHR

T6: SYNJ2BP, P57105
T6 sequence (P57105 8-110, limits assumed, looked up): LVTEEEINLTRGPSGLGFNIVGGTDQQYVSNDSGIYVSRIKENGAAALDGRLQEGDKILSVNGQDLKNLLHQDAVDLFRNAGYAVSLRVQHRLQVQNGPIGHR

T7: DLG3_2, Q92796
T7 sequence (Q92796 221-321, limits assumed, looked up): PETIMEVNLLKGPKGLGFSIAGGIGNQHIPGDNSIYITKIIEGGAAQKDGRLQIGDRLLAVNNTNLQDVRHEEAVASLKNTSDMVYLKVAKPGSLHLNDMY

T8: SNTB1, Q13884
T8 sequence (Q13884 107-205, limits assumed, looked up): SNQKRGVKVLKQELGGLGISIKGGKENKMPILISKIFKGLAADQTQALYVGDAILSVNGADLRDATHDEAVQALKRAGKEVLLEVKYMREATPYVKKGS

T9: ARHGAP21, Q5T5U3
T9 sequence (Q5T5U3 45-169, limits assumed, looked up): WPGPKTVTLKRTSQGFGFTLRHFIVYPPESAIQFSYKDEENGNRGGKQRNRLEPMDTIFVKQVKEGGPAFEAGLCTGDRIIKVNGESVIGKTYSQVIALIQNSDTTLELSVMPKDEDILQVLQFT

T10: DLG3_1, Q92796
T10 sequence (Q92796 125-227, limits assumed, looked up): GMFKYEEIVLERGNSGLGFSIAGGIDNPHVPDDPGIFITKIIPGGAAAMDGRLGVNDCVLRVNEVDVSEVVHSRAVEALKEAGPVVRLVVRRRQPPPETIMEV

T11: GRIP1_5, Q9Y3R0
T11 sequence (Q9Y3R0 568-668, limits assumed, looked up): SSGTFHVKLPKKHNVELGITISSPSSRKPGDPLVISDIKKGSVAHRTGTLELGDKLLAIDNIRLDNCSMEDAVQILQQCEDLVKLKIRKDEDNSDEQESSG

T12: PDZD7_3, Q9H5P4
T12 sequence (Q9H5P4 857-944, limits assumed, looked up): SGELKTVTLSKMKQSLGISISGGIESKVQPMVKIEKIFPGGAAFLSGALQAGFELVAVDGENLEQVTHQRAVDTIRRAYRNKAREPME

T13: TJP3_3, O95049
T13 sequence (O95049 375-456, limits assumed, looked up): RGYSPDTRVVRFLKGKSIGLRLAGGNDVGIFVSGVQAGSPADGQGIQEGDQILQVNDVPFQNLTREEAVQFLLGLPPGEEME


Target: DLG1_2, Q12959
Experiment: holdup assay
Parameters: key: below the threshold = too weak to quantify, mostly under pKd 3.1 to 4
Conditions: plain residues with an end cap or a label only (N-terminal biotin on a linker: ado-ado)

Chain of DLG1_2, Q12959 (Q12959 314-412): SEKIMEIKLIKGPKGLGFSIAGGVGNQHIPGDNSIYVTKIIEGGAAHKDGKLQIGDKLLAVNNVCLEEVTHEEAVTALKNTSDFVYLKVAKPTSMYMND

pKd	Binder
below the threshold	QLGSPTADLA [SIPA1, Q96FS4]

Target: GRID2IP_2, A4D2P6
Experiment: holdup assay
Parameters: key: below the threshold = too weak to quantify, mostly under pKd 3.1 to 4
Conditions: plain residues with an end cap or a label only (N-terminal biotin on a linker: ado-ado)

Chain of GRID2IP_2, A4D2P6 (A4D2P6 272-370): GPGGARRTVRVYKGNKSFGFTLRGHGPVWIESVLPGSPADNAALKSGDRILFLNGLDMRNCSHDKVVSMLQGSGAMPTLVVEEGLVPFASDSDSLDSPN

pKd	Binder
below the threshold	QLGSPTADLA [SIPA1, Q96FS4]

Target: T1, FRMPD1, Q5SYB0
Experiment: holdup assay
Parameters: key: below the threshold = too weak to quantify, mostly under pKd 3.1 to 4
Conditions: plain residues with an end cap or a label only (N-terminal biotin on a linker: ado-ado)

pKd	Binder
below the threshold	QLGSPTADLA [SIPA1, Q96FS4]

Target: MAGI2_6, Q86UL8
Experiment: holdup assay
Parameters: key: below the threshold = too weak to quantify, mostly under pKd 3.1 to 4
Conditions: plain residues with an end cap or a label only (N-terminal biotin on a linker: ado-ado)

Chain of MAGI2_6, Q86UL8 (Q86UL8 1141-1229): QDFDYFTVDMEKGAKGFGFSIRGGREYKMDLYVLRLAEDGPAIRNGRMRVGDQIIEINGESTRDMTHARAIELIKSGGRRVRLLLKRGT

pKd	Binder
below the threshold	QLGSPTADLA [SIPA1, Q96FS4]

Target: T2, DVL3, Q92997
Experiment: holdup assay
Parameters: key: below the threshold = too weak to quantify, mostly under pKd 3.1 to 4
Conditions: plain residues with an end cap or a label only (N-terminal biotin on a linker: ado-ado)

pKd	Binder
below the threshold	QLGSPTADLA [SIPA1, Q96FS4]

Target: MAST1, Q9Y2H9
Experiment: holdup assay
Parameters: key: below the threshold = too weak to quantify, mostly under pKd 3.1 to 4
Conditions: plain residues with an end cap or a label only (N-terminal biotin on a linker: ado-ado)

Chain of MAST1, Q9Y2H9 (Q9Y2H9 962-1065): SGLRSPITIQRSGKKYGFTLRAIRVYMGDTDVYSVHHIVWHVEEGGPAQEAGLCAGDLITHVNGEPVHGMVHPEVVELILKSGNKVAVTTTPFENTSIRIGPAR

pKd	Binder
3.84	QLGSPTADLA [SIPA1, Q96FS4]

Target: SCRIB_2, Q14160
Experiment: holdup assay
Parameters: key: below the threshold = too weak to quantify, mostly under pKd 3.1 to 4
Conditions: plain residues with an end cap or a label only (N-terminal biotin on a linker: ado-ado)

Chain of SCRIB_2, Q14160 (Q14160 857-960): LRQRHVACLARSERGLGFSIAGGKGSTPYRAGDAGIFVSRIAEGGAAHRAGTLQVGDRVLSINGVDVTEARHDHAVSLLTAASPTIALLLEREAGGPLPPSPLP

pKd	Binder
below the threshold	QLGSPTADLA [SIPA1, Q96FS4]

Target: T3, SHANK1, Q9Y566
Experiment: holdup assay
Parameters: key: below the threshold = too weak to quantify, mostly under pKd 3.1 to 4
Conditions: plain residues with an end cap or a label only (N-terminal biotin on a linker: ado-ado)

pKd	Binder
below the threshold	QLGSPTADLA [SIPA1, Q96FS4]

Target: Inadl_6, Q8NI35
Experiment: holdup assay
Parameters: key: below the threshold = too weak to quantify, mostly under pKd 3.1 to 4
Conditions: plain residues with an end cap or a label only (N-terminal biotin on a linker: ado-ado)

Chain of Inadl_6, Q8NI35 (Q8NI35 1058-1167): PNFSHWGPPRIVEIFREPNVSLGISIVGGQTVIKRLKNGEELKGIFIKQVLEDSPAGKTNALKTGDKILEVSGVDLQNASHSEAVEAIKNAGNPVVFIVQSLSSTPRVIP

pKd	Binder
below the threshold	QLGSPTADLA [SIPA1, Q96FS4]

Target: T4, APBA2_1, Q99767
Experiment: holdup assay
Parameters: key: below the threshold = too weak to quantify, mostly under pKd 3.1 to 4
Conditions: plain residues with an end cap or a label only (N-terminal biotin on a linker: ado-ado)

pKd	Binder
below the threshold	QLGSPTADLA [SIPA1, Q96FS4]

Target: T5, APBA3_1, O96018
Experiment: holdup assay
Parameters: key: below the threshold = too weak to quantify, mostly under pKd 3.1 to 4
Conditions: plain residues with an end cap or a label only (N-terminal biotin on a linker: ado-ado)

pKd	Binder
below the threshold	QLGSPTADLA [SIPA1, Q96FS4]

Target: T6, SYNJ2BP, P57105
Experiment: holdup assay
Parameters: key: below the threshold = too weak to quantify, mostly under pKd 3.1 to 4
Conditions: plain residues with an end cap or a label only (N-terminal biotin on a linker: ado-ado)

pKd	Binder
below the threshold	QLGSPTADLA [SIPA1, Q96FS4]

Target: T7, DLG3_2, Q92796
Experiment: holdup assay
Parameters: key: below the threshold = too weak to quantify, mostly under pKd 3.1 to 4
Conditions: plain residues with an end cap or a label only (N-terminal biotin on a linker: ado-ado)

pKd	Binder
4.06	QLGSPTADLA [SIPA1, Q96FS4]

Target: T8, SNTB1, Q13884
Experiment: holdup assay
Parameters: key: below the threshold = too weak to quantify, mostly under pKd 3.1 to 4
Conditions: plain residues with an end cap or a label only (N-terminal biotin on a linker: ado-ado)

pKd	Binder
below the threshold	QLGSPTADLA [SIPA1, Q96FS4]

Target: HTRA1, Q92743
Experiment: holdup assay
Parameters: key: below the threshold = too weak to quantify, mostly under pKd 3.1 to 4
Conditions: plain residues with an end cap or a label only (N-terminal biotin on a linker: ado-ado)

Chain of HTRA1, Q92743 (Q92743 360-477): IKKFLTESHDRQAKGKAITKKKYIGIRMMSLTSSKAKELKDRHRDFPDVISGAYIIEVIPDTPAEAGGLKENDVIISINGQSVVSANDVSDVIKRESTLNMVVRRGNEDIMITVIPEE

pKd	Binder
below the threshold	QLGSPTADLA [SIPA1, Q96FS4]

Target: GRIP2_4, Q9C0E4
Experiment: holdup assay
Parameters: key: below the threshold = too weak to quantify, mostly under pKd 3.1 to 4
Conditions: plain residues with an end cap or a label only (N-terminal biotin on a linker: ado-ado)

Chain of GRIP2_4, Q9C0E4 (Q9C0E4 446-548): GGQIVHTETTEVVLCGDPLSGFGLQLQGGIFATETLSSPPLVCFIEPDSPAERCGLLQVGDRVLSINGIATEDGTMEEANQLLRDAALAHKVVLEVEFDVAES

pKd	Binder
below the threshold	QLGSPTADLA [SIPA1, Q96FS4]

Target: PDLIM1, O00151
Experiment: holdup assay
Parameters: key: below the threshold = too weak to quantify, mostly under pKd 3.1 to 4
Conditions: plain residues with an end cap or a label only (N-terminal biotin on a linker: ado-ado)

Chain of PDLIM1, O00151 (O00151 1-87): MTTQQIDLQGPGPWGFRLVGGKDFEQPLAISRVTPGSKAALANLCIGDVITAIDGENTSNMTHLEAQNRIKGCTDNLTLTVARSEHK

pKd	Binder
below the threshold	QLGSPTADLA [SIPA1, Q96FS4]

Target: MAGI2_5, Q86UL8
Experiment: holdup assay
Parameters: key: below the threshold = too weak to quantify, mostly under pKd 3.1 to 4
Conditions: plain residues with an end cap or a label only (N-terminal biotin on a linker: ado-ado)

Chain of MAGI2_5, Q86UL8 (Q86UL8 915-1017): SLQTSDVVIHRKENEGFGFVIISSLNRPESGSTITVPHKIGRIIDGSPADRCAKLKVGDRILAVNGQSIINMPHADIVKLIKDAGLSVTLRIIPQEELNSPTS

pKd	Binder
below the threshold	QLGSPTADLA [SIPA1, Q96FS4]

Target: Inadl_4, Q8NI35
Experiment: holdup assay
Parameters: key: below the threshold = too weak to quantify, mostly under pKd 3.1 to 4
Conditions: plain residues with an end cap or a label only (N-terminal biotin on a linker: ado-ado)

Chain of Inadl_4, Q8NI35 (Q8NI35 547-651): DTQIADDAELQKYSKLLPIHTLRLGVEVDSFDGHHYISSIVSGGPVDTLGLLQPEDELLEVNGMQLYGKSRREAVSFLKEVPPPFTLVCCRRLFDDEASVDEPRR

pKd	Binder
below the threshold	QLGSPTADLA [SIPA1, Q96FS4]

Target: T9, ARHGAP21, Q5T5U3
Experiment: holdup assay
Parameters: key: below the threshold = too weak to quantify, mostly under pKd 3.1 to 4
Conditions: plain residues with an end cap or a label only (N-terminal biotin on a linker: ado-ado)

pKd	Binder
below the threshold	QLGSPTADLA [SIPA1, Q96FS4]

Target: T10, DLG3_1, Q92796
Experiment: holdup assay
Parameters: key: below the threshold = too weak to quantify, mostly under pKd 3.1 to 4
Conditions: plain residues with an end cap or a label only (N-terminal biotin on a linker: ado-ado)

pKd	Binder
below the threshold	QLGSPTADLA [SIPA1, Q96FS4]

Target: T11, GRIP1_5, Q9Y3R0
Experiment: holdup assay
Parameters: key: below the threshold = too weak to quantify, mostly under pKd 3.1 to 4
Conditions: plain residues with an end cap or a label only (N-terminal biotin on a linker: ado-ado)

pKd	Binder
below the threshold	QLGSPTADLA [SIPA1, Q96FS4]

Target: T12, PDZD7_3, Q9H5P4
Experiment: holdup assay
Parameters: key: below the threshold = too weak to quantify, mostly under pKd 3.1 to 4
Conditions: plain residues with an end cap or a label only (N-terminal biotin on a linker: ado-ado)

pKd	Binder
below the threshold	QLGSPTADLA [SIPA1, Q96FS4]

Target: T13, TJP3_3, O95049
Experiment: holdup assay
Parameters: key: below the threshold = too weak to quantify, mostly under pKd 3.1 to 4
Conditions: plain residues with an end cap or a label only (N-terminal biotin on a linker: ado-ado)

pKd	Binder
below the threshold	QLGSPTADLA [SIPA1, Q96FS4]
